In paper PMC8687477 (2021) one finds Kd and koff data, which are given here for nine molecules.

The chains are these.
B1: recombinant human CXCL4 (ligand)
chain: EAEEDGDLQCLCVKTTSQVRPRHITSLEVIKAGPHCPTAQLIATLKNGRKICLDLQAPLYKKIIKKLLES
B2: recombinant human CCL11 (ligand)
chain: not shown
B3: recombinant human CCL28 (ligand)
chain: SEAILPIASSCCTEVSHHISRRLLERVNMCRIQRADGDCDLAAVILHVKRRRICVSPHNHTVKQWMKVQAAKKNGKGNVCHRKKHHGKRNSNRAHQGKHETYGHKTPY
B4: recombinant human CCL26 (ligand)
chain: TRGSDISKTCCFQYSHKPLPWTWVRSYEFTSNSCSQRAVIFTTKRGKKVCTHPRKKWVQKYISLLKTPKQL
B5: recombinant human CXCL9 (ligand)
chain: TPVVRKGRCSCISTNQGTIHLQSLKDLKQFAPSPSCEKIEIIATLKNGVQTCLNPDSADVKELIKKWEKQVSQKKKQKNGKKHQKKKVLKVRKSQRSRQKKTT
B6: recombinant human CXCL11 (ligand)
chain: FPMFKRGRCLCIGPGVKAVKVADIEKASIMYPSNNCDKIEVIITLKENKGQRCLNPKSKQARLIIKKVERKNF
B7: recombinant human CCL21 (ligand)
chain: SDGGAQDCCLKYSQRKIPAKVVRSYRKQEPSLGCSIPAILFLPRKRSQAELCADPKELWVQQLMQHLDKTPSPQKPAQGCRKDRGASKTGKKGKGSKGCKRTERSQTPKGP
B8: recombinant human CXCL14 (ligand)
chain: SKCKCSRKGPKIRYSDVKKLEMKPKYPHCEEKMVIITTKSVSRYRGQEHCLHPKLQSTKRFIKWYNAWNEKRRVYEE
B9: recombinant human CCL5 (ligand)
chain: SPYSSDTTPCCFAYIARPLPRAHIKEYFYTSGKCSNPAVVFVTRKNRQVCANPEKKWVREYINSLEMS

For one assay, the target named is T1, SARS-CoV-2 nucleocapsid protein (N), 2X-StrepTag tagged (SARS-CoV-2, UniProt P0DTC9 1-419). Kind of assay: BLI. (In BLI a coated tip is dipped into the sample, and binding shifts an interference pattern.)
Broadly, the Kd is the constant that tells how readily two partners part at equilibrium. The molecule B1 yielded a Kd of 170 nM.

Regarding B2, the Kd was determined as 72 nM.

On to B3, for which the Kd was 22 nM.

B4 registered a Kd of 26 nM.

As to B5, binding was characterised by a dissociation constant (Kd) of 12 nM.

Consider B6, for which the Kd is 130 nM.

With B7, the affinity, expressed as Kd, was 14 nM.

With B8, binding was characterised by a dissociation constant (Kd) of 45 nM.

The next assay concerns the target T1, SARS-CoV-2 nucleocapsid protein (N), …. Kind of assay: BLI. The source holds these as a separate data set.
For orientation: koff means the first-order rate constant of dissociation. Higher therefore signals fast dissociation. B1 displayed a koff of 0.00053 s⁻¹.

Consider B9, for which the koff turned out to be 0.00019 s⁻¹.

The molecule B2 came in with a koff of 0.0045 s⁻¹.

In turn, B3 displayed a koff of 0.00087 s⁻¹.

Turning to B4, the koff turned out to be 0.00093 s⁻¹.

B5 registered a koff of 0.00085 s⁻¹.

In turn, B6 returned a koff of 0.0033 s⁻¹.

Take B7: the koff came out at 0.0014 s⁻¹.

As for B8, the koff was found to be 0.0019 s⁻¹.
